Article PMC6078998, “Functional activity of the H3.3 histone chaperone complex HIRA requires trimerization of the HIRA subunit” (Nature Communications, 2018)

Assays:
[1] = target: T1, CABIN1 full length (FL), recombinant (UniProt Q9Y6J0 1-2220); test: SEC; Superose 6 10/300 GL fractionation; ~100 μM HIRA fragment incubated with ~20 μM CABIN1 FL in 500 μl, 30 min at 4 °C; 20 mM Tris pH 8.0, 300 mM NaCl, 1 mM TCEP; settings: both partners purified
T1 construct: theoretical molecular weight printed as 246,352 Da; the discussion says 2200 amino-acid residues; Cloned into pFastBac HTA; No removal of the His tag is described; also called CABIN1 FL; FL His-CABIN1
T1 sequence (Q9Y6J0 whole entry, the tested form may be a part): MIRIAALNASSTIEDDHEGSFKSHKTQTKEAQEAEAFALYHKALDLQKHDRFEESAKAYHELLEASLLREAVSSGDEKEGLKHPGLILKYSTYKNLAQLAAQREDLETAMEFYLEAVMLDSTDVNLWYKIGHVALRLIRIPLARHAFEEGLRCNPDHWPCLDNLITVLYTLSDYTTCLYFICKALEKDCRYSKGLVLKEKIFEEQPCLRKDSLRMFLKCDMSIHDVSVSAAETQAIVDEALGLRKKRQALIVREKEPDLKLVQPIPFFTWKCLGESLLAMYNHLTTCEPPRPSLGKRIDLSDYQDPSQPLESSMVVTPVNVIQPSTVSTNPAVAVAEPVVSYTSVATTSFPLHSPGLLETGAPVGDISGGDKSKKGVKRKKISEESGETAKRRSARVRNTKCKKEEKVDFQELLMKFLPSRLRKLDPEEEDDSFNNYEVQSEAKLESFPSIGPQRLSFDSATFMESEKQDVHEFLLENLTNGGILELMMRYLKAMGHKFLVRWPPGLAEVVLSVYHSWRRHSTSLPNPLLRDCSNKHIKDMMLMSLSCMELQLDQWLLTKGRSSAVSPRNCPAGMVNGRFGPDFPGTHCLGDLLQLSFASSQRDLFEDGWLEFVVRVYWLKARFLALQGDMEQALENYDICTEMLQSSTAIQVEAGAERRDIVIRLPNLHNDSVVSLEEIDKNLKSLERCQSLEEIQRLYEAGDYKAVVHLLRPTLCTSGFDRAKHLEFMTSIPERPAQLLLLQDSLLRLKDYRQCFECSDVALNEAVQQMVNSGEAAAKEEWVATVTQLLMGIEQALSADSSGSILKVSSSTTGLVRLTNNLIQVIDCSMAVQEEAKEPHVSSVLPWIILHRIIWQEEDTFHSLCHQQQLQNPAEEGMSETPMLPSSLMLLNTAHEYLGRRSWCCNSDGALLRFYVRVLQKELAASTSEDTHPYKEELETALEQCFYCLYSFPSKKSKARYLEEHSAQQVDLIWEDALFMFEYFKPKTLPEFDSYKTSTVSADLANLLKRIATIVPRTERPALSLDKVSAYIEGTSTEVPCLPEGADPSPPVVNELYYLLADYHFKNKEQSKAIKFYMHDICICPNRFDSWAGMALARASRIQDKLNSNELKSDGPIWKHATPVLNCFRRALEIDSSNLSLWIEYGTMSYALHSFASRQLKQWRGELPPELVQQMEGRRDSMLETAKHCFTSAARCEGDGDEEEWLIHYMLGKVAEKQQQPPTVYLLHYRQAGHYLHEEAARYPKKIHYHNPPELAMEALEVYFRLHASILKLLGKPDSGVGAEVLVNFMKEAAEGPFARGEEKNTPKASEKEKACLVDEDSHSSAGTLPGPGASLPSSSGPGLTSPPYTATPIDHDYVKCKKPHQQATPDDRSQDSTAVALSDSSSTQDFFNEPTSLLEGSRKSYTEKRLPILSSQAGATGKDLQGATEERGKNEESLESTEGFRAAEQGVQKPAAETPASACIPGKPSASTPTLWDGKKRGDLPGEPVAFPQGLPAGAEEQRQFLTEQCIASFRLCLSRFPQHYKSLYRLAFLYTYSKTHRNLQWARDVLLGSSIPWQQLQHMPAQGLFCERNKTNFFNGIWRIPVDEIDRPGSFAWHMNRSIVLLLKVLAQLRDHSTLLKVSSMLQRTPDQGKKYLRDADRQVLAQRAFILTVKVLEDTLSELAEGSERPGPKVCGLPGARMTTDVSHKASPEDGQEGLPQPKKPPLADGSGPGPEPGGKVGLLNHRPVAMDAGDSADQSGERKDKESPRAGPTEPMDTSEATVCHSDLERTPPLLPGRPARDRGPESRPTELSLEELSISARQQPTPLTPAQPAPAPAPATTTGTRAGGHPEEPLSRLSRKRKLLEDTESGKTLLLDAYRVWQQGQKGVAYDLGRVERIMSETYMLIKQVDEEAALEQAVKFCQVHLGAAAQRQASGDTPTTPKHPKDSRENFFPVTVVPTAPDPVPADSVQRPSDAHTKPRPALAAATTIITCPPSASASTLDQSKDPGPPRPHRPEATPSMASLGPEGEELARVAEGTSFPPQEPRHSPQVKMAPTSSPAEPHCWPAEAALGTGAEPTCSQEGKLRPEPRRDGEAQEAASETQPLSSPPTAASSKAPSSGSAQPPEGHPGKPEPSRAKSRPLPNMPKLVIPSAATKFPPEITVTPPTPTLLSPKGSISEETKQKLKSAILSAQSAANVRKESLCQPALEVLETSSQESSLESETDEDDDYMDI

[2] = target: the molecule itself; test: AUC; sedimentation equilibrium of single purified proteins, 4 °C, 280 nm, 2–3 concentrations, multiple speeds; 20 mM Tris pH 8.0, 300 mM NaCl, 1 mM TCEP; Heteroanalysis and SEDPHAT; the constant of HIRA is of a monomer–trimer equilibrium model
[3] = target: the molecule itself; test: SEC-MALS; HIRA(644–1017) purified in 500 mM NaCl

Row | Binder | binding result [1] | stoichiometry N [2] | stoichiometry N [3]
1 | recombinant HIRA(661–1017) Δ873–904 (domain or fragment, human, UniProt P54198 661-1017, looked up, also called loop deletion mutant; not shown: GST, N-terminal, cleaved) SPAALTAEKEAMCLSAPALALKLPIPSPQRAFTLQVSSDPSMYIEVENEVTVVGGVKLSRLKCNREGKEWETVLTSRILTAAGSCDVVCVACEKRMLSVFSTCGRRLLSPILLPSPISTLHCTGSYVMALTAAATLSVWDVHRQVVVVKEESLHSILAGSDMTVSQILLTQHGIPVMNLSDGKAYCFNPSLSTWNLVSDKQDSLAQCADFRSSVPHVVQQETTLAYLENQVAAALTLQSSHEYRHWLLVYARYLVNEGFEYRLREICKDLLGPVHYSTGSQWESTVVGLRKRELLKELLPVIGQNLRFQRLFTECQEQLDILRDK | binds | 3 | –
2 | HIRA(644–1017) (domain or fragment, human, Cloned by NdeI/XhoI into pTXB1 (pYHD1); the forward primer has ATG before the first HIRA codon, so a start methionine may stand in front; A Se-Met labelled form was used for phasing only; Theoretical trimer weight printed as 125,815 Da; source: E. coli BL21(DE3), purified (chitin beads, on-column intein cleavage, Superdex 200); not shown: Intein (chitin beads), C-terminal, cleaved) GRPRKDSRLMPVSLSVQSPAALTAEKEAMCLSAPALALKLPIPSPQRAFTLQVSSDPSMYIEVENEVTVVGGVKLSRLKCNREGKEWETVLTSRILTAAGSCDVVCVACEKRMLSVFSTCGRRLLSPILLPSPISTLHCTGSYVMALTAAATLSVWDVHRQVVVVKEESLHSILAGSDMTVSQILLTQHGIPVMNLSDGKAYCFNPSLSTWNLVSDKQDSLAQCADFRSSLPSQDAMLCSGPLAIIQGRTSNSGRQAARLFSVPHVVQQETTLAYLENQVAAALTLQSSHEYRHWLLVYARYLVNEGFEYRLREICKDLLGPVHYSTGSQWESTVVGLRKRELLKELLPVIGQNLRFQRLFTECQEQLDILRDKLEGSS | – | – | 3

Continued, in another order:

Row | binding result [1] | Binder | stoichiometry N [2] | stoichiometry N [3]
3 | binds | recombinant human HIRA(661–1017) (domain or fragment, UniProt P54198 661-1017, looked up, Theoretical molecular weight of the homotrimer printed as 118,710 Da; also called HIRA trimer; not shown: GST, N-terminal, cleaved) SPAALTAEKEAMCLSAPALALKLPIPSPQRAFTLQVSSDPSMYIEVENEVTVVGGVKLSRLKCNREGKEWETVLTSRILTAAGSCDVVCVACEKRMLSVFSTCGRRLLSPILLPSPISTLHCTGSYVMALTAAATLSVWDVHRQVVVVKEESLHSILAGSDMTVSQILLTQHGIPVMNLSDGKAYCFNPSLSTWNLVSDKQDSLAQCADFRSSLPSQDAMLCSGPLAIIQGRTSNSGRQAARLFSVPHVVQQETTLAYLENQVAAALTLQSSHEYRHWLLVYARYLVNEGFEYRLREICKDLLGPVHYSTGSQWESTVVGLRKRELLKELLPVIGQNLRFQRLFTECQEQLDILRDK | 3 | –
4 | binds | recombinant HIRA(661–1017 + FRL870-871-874AAA) (domain or fragment, human, UniProt P54198 661-1017, looked up, not shown: GST, N-terminal, cleaved) SPAALTAEKEAMCLSAPALALKLPIPSPQRAFTLQVSSDPSMYIEVENEVTVVGGVKLSRLKCNREGKEWETVLTSRILTAAGSCDVVCVACEKRMLSVFSTCGRRLLSPILLPSPISTLHCTGSYVMALTAAATLSVWDVHRQVVVVKEESLHSILAGSDMTVSQILLTQHGIPVMNLSDGKAYCFNPSLSTWNLVSDKQDSLAQCADAASSAPSQDAMLCSGPLAIIQGRTSNSGRQAARLFSVPHVVQQETTLAYLENQVAAALTLQSSHEYRHWLLVYARYLVNEGFEYRLREICKDLLGPVHYSTGSQWESTVVGLRKRELLKELLPVIGQNLRFQRLFTECQEQLDILRDK | – | –
